Test results reported in the domain aggregation screens of Martell et al. (2025).

assay: soluble fraction after stress (log2 fold change); higher = more stays soluble; pooled small domains, quantitative proteomics; details: stress: 75 degC
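Note: 20 min heating vs room temperature control held 20 min.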

| Sequence | soluble fraction (log2) |
| --- | --- |
| HMAFKEQLKAARLAKGYTQEQLATAIGVAKSTFTGYEKGNSEPNMLTIKKLMEILEVDANYLWY | -2.91 |
| HMAFRWQQIADTITSMIANGSYPRGSRLPTEAALADSFGVNRHTVRRAVAALRDTGLVQPRQGAGVFVIG | -2.02 |
| HMAFYQDIAVDLRKQIIDGVYPKNSRLPNQAELAKLYTTSRVTIQKALKILQIEGLIEGRQGSGSYVKGP | -2.11 |
| HMAGHKVDFSELPARSQAFIGKNFPTEMVKNVEMERKDAKDHYTVLLSNGTKVMFDGTSGELTGV | 0.0762 |
| HMAGISQGLAENVERRITTLLREQKEVPVHDIDFPGISRETVGQVLHQMVQEEKLLLDDGMISLSPNQ | 0.181 |
| HMAGPAGASEVANARDGDDETPLHMAARGGYPGIVRMLLAAGAKADAKSAAGLFPWNYAEDGSELHALLPR | 0.139 |
| HMAGPTIVTNSQGVPNYHLVKRGDTVSQIAQRYGLNYRQIGAINNLDSKYTIYSGQWLKLWQG | -1.37 |
| HMAGQWQQDQNGWKYKTDNGDHMKNTWYQDSDSRWYYFGPDGYMKSSTMTPDGYVVGSDGAWIE | -0.662 |
| HMAGSGDLNAKYLASIPAPMKAKILKAVANHYGVSISEFEEEVTDKDAEALYEYIPTRSMAVQVLRDMKG | -0.829 |
| HMAGSGLPVPRFVSLADDRVNARAGPGFRFPINWVYLRKGFPVEVVDEFGPWRRIRDIDGVAAWIHLSMLS | -0.654 |
| HMAGTAFPVRIMLKGIDRIGLLNEITGYISVAMGVNMRKLNLSTEDGIFEGYIDMLVHDRTVLESMIDNL | -0.381 |
| HMAGTELASIKEIQSLVDRSEEALSARNFFWPKDKSESMLLSFRNMFSRLKLTKMDVQIFHGIFKVMEKS | 0.24 |
| HMAGVSVTSLTTFWRLAADTPDTPSGADDPSGWSRTEPSIPDGYEGKLYRTIRTIMSDGTATWTSPD | -0.728 |
| HMAGYDTYMVDRDAELLPWLLETLQRESRSKVKATLQGNGIKVNGKRVTQFNYPLKAGMKVSVSKSK | 0.0362 |
| HMAHILDLMELKQILRLHMDGLSNRRISDTLGIHRNTINSYVSQFKASKHGIEELLKLSDYELAQLFP | -2.49 |
| HMAHRYQQIADDLGRRVEAGEFAAGRLLPSEATLSGQYKASRVTVRKALEALRTDGLVESRQGFGWFVAAD | -0.405 |
| HMAIADQPISAEHFDKLRQVLNSNTQETIASAKQHWASISNNAEFTNENVTRTLLEEMLAFIKSAS | 0.415 |
| HMAIDVQELARTRLRSLRTTLGYSLDELAARTHLSPSTISRLETGKRSLSLDVVVPLAQALHVSLDVLFEA | -2.67 |
| HMAIEGIFEKYQRRSDQLIPILQDVQKEFGYIAPESVRHISRYLRISENQIFGVSSFYAQFRFT | -0.228 |
| HMAIGTDPETGISVVADGTDFIWTRSGATSTIFLRLDSENSYILNVKQGDFEVIDYELGEGQENAINIDQS | 0.0422 |
| HMAIPEVDPAKQGVSATQLAALDALAHRNAGEGRVAGMVNVVIRNGEIVYYKATGPRHIDGGAPLKSTDLF | -0.148 |
| HMAIQGVRLYERTLETGDPWLDRPLSTLSTGTRLIILVRRGGDVLIPKGDTVLLAGDTLVINDS | -3.85 |
| HMAIRPDAAVSSHAVKQRLQSLIRAEDPAAPLSDEALRLALSALGIGVSRRAVAKYRAEMGIPSSSQRKK | -0.492 |
| HMAISQYGSQSDEVTKIQTRLKAWGYFDGPVTAYYGSQTTEAVKKFQQKHGLSATGVADAKTLELIGLP | -0.397 |
| HMAITLEQFLSVNPHIRNNLYGNAVELVKDKDFSVLSDKLKASSKWANEPSLYKILSHYDEIIS | -0.335 |
| HMAKDSQSADVLQAIFDGSKVLNGLALDQDMRWDLINGLVMSGRLGVEAIEAEAAKLAKLVEELEFR | -0.976 |
| HMAKETLRANIKDYIQKQIASGVYRPGDRIVETQLAREMNVSQAPVREAILELVSLGLLEERPYSGHMVRQ | 0.0046 |
| HMAKIKVFELKNQINSLIKNKIESKDIIDFIETNFGVKKSHSSALEENEANFIKNYFVHADKA | -0.264 |

| Sequence | soluble fraction (log2) |
| --- | --- |
| HMAKIPASTVVEIDGAPVVVAVRVNARARSYRLSIPHSGGPLLTLPPHGKWAEAEAFLLRHHNWLAARLHR | -2.92 |
| HMAKQEPTDNGYDIYKVTASVLNVRNGAGTSYAVAYQLSKEDYVEVVSIDKGWAKLKDGKYVSADWITLYK | -2.53 |
| HMAKRINVKLIMELSAGGLTQNEIASSRHFSKTSVNLVLKTARELNVSAADLREMSPEEAYRLFFPEK | -1.66 |
| HMAKRKTEKTSVLEEIDGVGKARARALLARFGGLSGVKAASPEELRTVRGITPEIAENIRRYFQ | -0.0813 |
| HMAKRMRNPNGYGSIVKLSGNRRNPYMVKVNTHMDERYYPVYDILGYYPTWADASIALAKYNDDPYNVS | -0.777 |
| HMAKRQATIVYEGTNVRSGPSTSSAIVKRTGKGESYPIVSTKGDWYEIKLSNGDSAYVASWVVQTVD | -0.728 |
| HMAKRYFVTTGVRVRTKPDTANSEVLTVLDEGSEIDYKGDYNNEWVKINYNGQEAYIAKQYVRSEE | -0.382 |
| HMAKSDLNYLDFKSKLEAGEIAKASVIRNEDTFKVTLQNGEVYNVTSPDYEDFRKELLEAGVDIQVSK | 0.116 |
| HMAKSMRHLIVPSRETSLWRDKLSTNGWLSKGYGIHNLDDYRGIPLNETAPKIIEGLEITELEPIS | 0.124 |
| HMAKTALEQAQAMVAAYVAAEQQILLGKEVRMGGPGIDRWLRFEDLQEVRAGRKEWESTVTRLQNTAA | -1.27 |
| HMAKTGMDALVGRRVVLTKAIAGEGEGLVAVDGDVWRATSPAGSAIPKGTEVRITGYRSIVLEVEPI | -1.87 |
| HMAKYEVVAKDIISRIKQNEFETTLKLPTEDEMIEYYQVSRNTVRSALKLLTSQGIIFSRQGSGFYIRQRS | -1.95 |
| HMALALSGVDLNRNRLTISWQTSKGVSYRVQRSSDLQSWTDVGAERLGNGNRLSHTQALNTESAFLRVII | -0.0203 |
| HMALEGTLARVSVRIPESGVGEIIFSLGGVRRSEAARSVSGRAIPRGTEVVILSYERGIATVQPYEELLTN | -1.64 |
| HMALEVPGIAKDKIYRIFGQLYERQQKWEDAIDYYNRAVFFTLSGTDMILYQEDLSRVKQKISL | -0.283 |
| HMALKRVAPQGEDKLSAQLDGVEFDKLIPWLGMLEHDHRIAIVNLSIDRANATGLVNARVIL | 0.115 |
| HMALKSGVIAHAVDDAVMRGLNVFTVSDDGSIVSMKDNDIVLGKDGKSPYSVSEWLEELKPNVPHWFG | -0.166 |
| HMALKSYEDMVGKTGVAYTVLRPSGKVIINDELFDATARSGMIEKGNEVIIYDYKNAQLIVEK | 0.263 |
| HMALPASLSPREREIVSLISQGKTNSEIASLLYISVPTVKTHISNIFQKTGVSNRTSLLNRLRMS | -0.996 |
| HMALPHEIKQKWLEEIMTMLRSSDSVTINKVYLHFPENKSHWVDEILTDLSNTHMITRQHDFIRLKN | -0.964 |
| HMALQDKYKQLVDTATASGVANLQVREQDGVLYIDGEAPSGSVKDQLWDIYGKIDPNFLSGDVVMNINV | -0.148 |
| HMALQLPFSFAKRHKVLVESAHEPVKVYHTPSTDFAVFAEVRRFLDQTFVLEEIAENRFEELLTSSFQRD | -1.1 |
| HMALSETIYRLRTEHGLSQGDLAAELDVSRQSISKWETGSSVPELDKLVAMSRLFGVSLDELVLGE | -0.85 |
| HMALSLPDDMTIVRKDGSSLEVRLKSRTVTEIHFERISDSETFQFSIDQLDETTRELVEQYPVM | -0.31 |
| HMALTAEVLRSLIKHHGLGQSIQRTAKAVGLSASTVKKYFDRIAAANLTWQEAKSRTQEELIASLQPT | -0.813 |
| HMALTARDLGLTHRQADVLHLVLQGKPVKLIARDLGLAEGTVKSHVSAVLRALNVTTRTQAIVAAGRLGLM | -2.18 |
| HMAMDITLPLAEVRRQSLEQIERQYLNELMSKHLGRINRAAEAAGITTRQLHKLLTKYSIRKEDFK | -1.25 |
